Key:
Assay in all cases: purified protein
Assay type in all cases: biochemical, Sorangium cellulosum
Conditions in all cases: 50 mM Tris-HCl pH 8.0, 30 °C
purified protein [1] = substrate: CCCC(=O)Oc1ccc([N+](=O)[O-])cc1
purified protein [2] = substrate: CCCCCCCCCC(=O)Oc1ccc([N+](=O)[O-])cc1
purified protein [3] = substrate: CCCCCCCC(=O)Oc1ccc([N+](=O)[O-])cc1
purified protein [4] = substrate: CCCCCCCCCCCC(=O)Oc1ccc([N+](=O)[O-])cc1
purified protein [5] = substrate: CC(=O)Oc1ccc([N+](=O)[O-])cc1

B1: r-LipA (Sorangium cellulosum) (protein)
chain: MPADTFTFQADDGRELFVYRWLPDDGARGIFHIAHGMSEHAGRYARLAHALSAAGWAVYANDHRGHGRTARERGELGFFASQGGFQRVVRDLAALIAREQEAHPGLPVVLFGHSMGSSLVQEYLIERGGSIQGAVLSGSSGKPSPLVDAGRLVARAERRRLGERGKSQLLQSMSFDSFNKLFAPARTPFDWLSRDRAEVDGYIADPCCGFPATVSLWIDLLDAMVDIARPERQARIPKDLPVYVFSGSRDPVGGPLRSVTQMIEAYRAAGLRRVTPRIYPGGRHEMLNEINREEVVRDLLAWLDAEVKTEAAPARPARPSAGAAAG
notes: pET-22b(+) NdeI/HindIII, His-tag (C-terminal by vector and stop-less reverse primer), E. coli BL21(DE3), Ni-NTA; tryptic peptides GELGFFASQGGFQR, SVTQMIEAYR; GHSMG at 112-116, Ser114/Asp250/His284
- Km (purified protein [1]): 366 ± 211 µM
- kcat (purified protein [1]): 13.6 ± 0.735 s⁻¹
- kcat/Km (purified protein [1]): 37170 ± 128 M⁻¹ s⁻¹
- Km (purified protein [2]): 1664 ± 47 µM
- kcat (purified protein [2]): 1.56 ± 0.036 s⁻¹
- kcat/Km (purified protein [2]): 940 ± 5 M⁻¹ s⁻¹
- Km (purified protein [3]): 704 ± 26 µM
- kcat (purified protein [3]): 3.29 ± 0.114 s⁻¹
- kcat/Km (purified protein [3]): 4677 ± 13 M⁻¹ s⁻¹
- Km (purified protein [4]): 1946 ± 59 µM
- kcat (purified protein [4]): 1.21 ± 0.032 s⁻¹
- kcat/Km (purified protein [4]): 619 ± 2 M⁻¹ s⁻¹
- Km (purified protein [5]): 174 ± 6 µM
- kcat (purified protein [5]): 29.2 ± 0.977 s⁻¹
- kcat/Km (purified protein [5]): 168000 ± 2100 M⁻¹ s⁻¹

Reference: article PMC3211009, “A Novel Cold-Adapted Lipase from Sorangium cellulosum Strain So0157-2: Gene Cloning, Expression, and Enzymatic Characterization” (International Journal of Molecular Sciences, 2011)
